The values below are quoted from earlier work in PMC4310935.

The data set has as its target GLP-1 receptor (Mus musculus) (UniProt O35659).
UniProt O35659, sequence (O35659 22-463): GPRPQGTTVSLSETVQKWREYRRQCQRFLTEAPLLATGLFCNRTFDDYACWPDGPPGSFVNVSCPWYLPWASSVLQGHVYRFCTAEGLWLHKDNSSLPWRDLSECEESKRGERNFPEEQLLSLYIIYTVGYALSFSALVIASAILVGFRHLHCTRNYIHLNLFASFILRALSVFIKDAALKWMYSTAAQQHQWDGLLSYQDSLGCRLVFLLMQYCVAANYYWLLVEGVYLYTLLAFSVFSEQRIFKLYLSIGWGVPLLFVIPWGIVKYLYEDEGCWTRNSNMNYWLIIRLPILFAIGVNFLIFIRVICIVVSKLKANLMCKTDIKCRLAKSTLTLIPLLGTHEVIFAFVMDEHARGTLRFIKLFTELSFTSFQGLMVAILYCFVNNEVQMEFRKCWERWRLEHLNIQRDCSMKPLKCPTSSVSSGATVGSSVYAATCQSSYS

GLP-1, sequence (P55095 98-127): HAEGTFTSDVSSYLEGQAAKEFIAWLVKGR

As usually defined, the Kd is the constant that tells how readily two partners part at equilibrium. Turning to GLP-1 (from UniProt P55095), the Kd is 0.5 nM.
